Results taken from patent US20220372155A1 (LYVGEN BIOPHARMA, published 2022).

Key:
[1] = molecular target: T1, Human PD-L1 ECD protein (mouse IgG2a Fc tag) (human, UniProt Q9NZQ7 19-238); assay: bridging ELISA, coated CD40 ECD-His, soluble PD-L1 ECD-mFc
T1 construct: extracellular domain; also called recombinant human PD-L1; not shown: mouse IgG2a Fc tag
Procedure: (§1) Exemplary anti-PD-L1/CD40 bi-specific antibodies were analyzed by ELISA for their simultaneous binding to recombinant human PD-L1 and human CD40. Briefly, Ly090 (human CD40 ECD protein with His tag) was diluted and coated onto an ELISA plate with a volume of 100 μL/well by incubation at 4° C. overnight. The next day, the plate was blocked by PBST-BSA buffer, then serially diluted samples of anti-PD-L1/CD40 bi-specific antibodies were pipetted into appropriate wells at 50 μL/well, and the plate was incubated for 1 h followed by Washing. Human PD-L1 ECD protein (mouse IgG2a Fc tag) was added into the plate at 50 μL/well. After 1-hour incubation at room temperature, HRP-conjugated anti-Mouse IgG, Fc G2a antibody was added into the plate at 100 μL/well. The plate was incubated for 1 hour at room temperature followed by washing. TMB substrate solution was added at 100 μL/well and the color development was stopped by adding 100 uL/well Stop Solution (2N H₂SO₄). Absorbance at 450 nm and 620 nm was read by Tecan F200 Pro plate reader. GraphPad 7.0, “[Agonist] vs. response—Variable slope (four parameters)” was used to plot the binding data and calculate binding EC50 values.

[2] = molecular target: T2, Ly090 (human CD40 ECD protein with His tag) (human, UniProt P25942 21-193); assay: as above
T2 construct: extracellular domain; also called human CD40 ECD protein (His tag); recombinant human CD40; not shown: His tag
Procedure: as §1

[3] = molecular target: T3, human CD40 expressed on CHO cells (human, UniProt P25942 21-277); assay: FACS, CHO cells
T3 construct: whole, on cells; also used for the reporter cells over-expressing human CD40; also called cellular CD40; CHO-CD40 cells

[4] = molecular target: T4, human PD-L1 expressed on CHO cells (human, UniProt Q9NZQ7 19-290); assay: FACS, CHO cells
T4 construct: whole, on cells; also used for human PD-L1 on Raji cells in the reporter assay; also called cell surface PD-L1; Raji-PD-L1 cells

[5] = molecular target: T5, human PD-1 expressed on CHO cells (human, UniProt Q15116 25-288); assay: FACS, CHO cells
T5 construct: whole, on cells; also used for human PD-1 on Jurkat reporter cells; also called Jurkat/NFkB-Luci/PD-1 cells

[6] = molecular target: T2, Ly090 (human CD40 ECD protein with His …); assay: bridging ELISA, coated CD40 ECD-His, soluble PD-1 ECD-mFc
Procedure: (§2) Briefly, human CD40 ECD protein (His tag) was diluted and coated onto an ELISA plate with a volume of […] by incubation at 4° C. overnight. […] After 1-hour incubation at room temperature, HRP-conjugated anti-Mouse IgG (H+L) antibody was added into the plate at 100 μL/well. The plate was incubated for 1 hour at room temperature followed by washing. TMB substrate solution was added at 100 μL/well and the color development was stopped by adding 100 uL/well Stop Solution (2N H2SO4). Absorbance at 450 nm and 620 nm was read by Tecan F200 Pro plate reader. GraphPad 7.0, “[Agonist] vs. response—Variable slope (four parameters)” was used to plot the binding data and calculate binding EC50 values.

[7] = molecular target: T6, Human PD-1-ECD protein (mouse IgG2a Fc tag) (human, UniProt Q15116 25-170); assay: as above
T6 construct: extracellular domain; also called soluble human recombinant PD-1; not shown: mouse IgG2a Fc tag
Procedure: as §2

Measured: binding result

T2 sequence (P25942 21-193): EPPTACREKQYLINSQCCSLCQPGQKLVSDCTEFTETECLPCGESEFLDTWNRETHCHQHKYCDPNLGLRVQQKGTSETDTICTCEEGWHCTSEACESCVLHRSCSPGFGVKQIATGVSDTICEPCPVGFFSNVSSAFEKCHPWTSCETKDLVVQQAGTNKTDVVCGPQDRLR
T3 sequence (P25942 21-277): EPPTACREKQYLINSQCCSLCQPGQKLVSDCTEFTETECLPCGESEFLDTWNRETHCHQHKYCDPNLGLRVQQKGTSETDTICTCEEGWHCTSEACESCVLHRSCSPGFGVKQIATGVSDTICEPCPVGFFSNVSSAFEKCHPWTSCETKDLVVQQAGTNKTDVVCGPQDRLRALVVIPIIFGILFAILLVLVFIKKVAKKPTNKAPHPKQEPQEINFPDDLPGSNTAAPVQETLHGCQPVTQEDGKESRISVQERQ
T6 sequence (Q15116 25-170): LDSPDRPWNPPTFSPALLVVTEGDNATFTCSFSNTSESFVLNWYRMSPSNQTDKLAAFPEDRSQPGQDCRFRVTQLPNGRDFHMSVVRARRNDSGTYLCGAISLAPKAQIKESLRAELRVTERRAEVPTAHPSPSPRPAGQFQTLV
T1 sequence (Q9NZQ7 19-238): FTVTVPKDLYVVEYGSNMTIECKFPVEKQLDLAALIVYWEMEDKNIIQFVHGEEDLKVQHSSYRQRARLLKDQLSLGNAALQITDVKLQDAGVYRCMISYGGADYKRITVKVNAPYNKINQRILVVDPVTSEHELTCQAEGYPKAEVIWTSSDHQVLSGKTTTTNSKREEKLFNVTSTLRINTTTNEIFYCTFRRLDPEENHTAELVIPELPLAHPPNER
T4 sequence (Q9NZQ7 19-290): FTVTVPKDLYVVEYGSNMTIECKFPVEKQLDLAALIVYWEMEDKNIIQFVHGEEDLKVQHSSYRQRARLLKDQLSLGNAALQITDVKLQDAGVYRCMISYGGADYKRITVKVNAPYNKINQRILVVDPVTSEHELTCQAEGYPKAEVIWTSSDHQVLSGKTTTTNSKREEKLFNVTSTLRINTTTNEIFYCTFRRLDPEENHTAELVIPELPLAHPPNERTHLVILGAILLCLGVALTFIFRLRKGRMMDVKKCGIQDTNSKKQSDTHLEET
T5 sequence (Q15116 25-288): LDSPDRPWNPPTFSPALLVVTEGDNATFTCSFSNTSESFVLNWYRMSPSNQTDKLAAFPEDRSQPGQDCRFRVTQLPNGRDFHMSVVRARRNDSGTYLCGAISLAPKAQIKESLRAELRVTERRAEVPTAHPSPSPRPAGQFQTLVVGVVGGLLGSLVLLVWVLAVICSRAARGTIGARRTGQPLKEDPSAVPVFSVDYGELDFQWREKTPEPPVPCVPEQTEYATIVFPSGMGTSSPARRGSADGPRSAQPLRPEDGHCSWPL

B1: Ly301 (bispecific antibody, human IgG1, kappa)
heavy: QVQLVQSGAEVKKPGASVKVSCKASGYTFTDFWMSWVRQAPGQGLEWMGQIYPNTGTTHSNEKFKGRVTMTRDTSTSTVYMELSSLRSEDTAVYYCARSYHISTTPNWFAYWGQGTLVTVSSASTKGPSVFPLAPSSKSTSGGTAALGCLVKDYFPEPVTVSWNSGALTSGVHTFPAVLQSSGLYSLSSVVTVPSSSLGTQTYICNVNHKPSNTKVDKKVEPKSCDKTHTCPPCPAPELLGPSVFLFPPKPKDTLMISRTPEVTCVVVDVSHEDPEVKFNWYVDGVEVHNAKTKPREEQYNSTYRVVSVLTVLHQDWLNGKEYKCKVSNKALPAPIEKTISKAKGQPREPQVYTLPPSREEMTKNQVSLTCLVKGFYPSDIAVEWESNGQPENNYKTTPPVLDSDGSFFLYSKLTVDKSRWQQGNVFSCSVMHEALHNHYTQKSLSLSPGGGGGSGGGGSGGGGSGGGGSDIQMTQSPSSLSASVGDRVTITCKASQNIYIYLNWYQQKPGKAPKLLIYNTNNLQTGVPSRFSGSGSGTDFTLTISSLQPEDFATYYCLQHSSRRTFGGGTKVEIKGGGGSGGGGSGGGGSGGGGSQVQLVESGGGLVQPGGSLKLSCATSGFNFNDYFMNWVRQASGKGLEWVGQIRNKNYNYATYYTESLEGRVTISRDDSKNTAYLQMNSLKTEDTAVYYCTSYYYDGFADYFDYWGQGTTVTVSS
light: DIQMTQSPSSLSASVGDRVTITCKASQNVYKKLEWYQQKPGKVPKVLIYHTNILQTGVPSRFSGSGSGTDYTLTISSLQPEDVATYYCYQWNSGPTFGGGTKVEIKRTVAAPSVFIFPPSDEQLKSGTASVVCLLNNFYPREAKVQWKVDNALQSGNSQESVTEQDSKDSTYSLSSTLTLSKADYEKHKVYACEVTHQGLSSPVTKSFNRGEC
notes: Ly076 HC (IgG1 mutated Fc)-TM740 scFv VL-VH + Ly076 LC
binds: [1] | [2] | [3] | [4]

B2: Ly338 (bispecific antibody, human IgG1, kappa)
heavy: QVQLVQSGAEVKKPGASVKVSCKASGYTFTDFWMSWVRQAPGQGLEWMGQIYPNTGTTHSNEKFKGRVTMTRDTSTSTVYMELSSLRSEDTAVYYCARSYHISTTPNWFAYWGQGTLVTVSSASTKGPSVFPLAPSSKSTSGGTAALGCLVKDYFPEPVTVSWNSGALTSGVHTFPAVLQSSGLYSLSSVVTVPSSSLGTQTYICNVNHKPSNTKVDKKVEPKSCDKTHTCPPCPAPELLGPSVFLFPPKPKDTLMISRTPEVTCVVVDVSHEDPEVKFNWYVDGVEVHNAKTKPREEQYNSTYRVVSVLTVLHQDWLNGKEYKCKVSNKALPAPIEKTISKAKGQPREPQVYTLPPSREEMTKNQVSLTCLVKGFYPSDIAVEWESNGQPENNYKTTPPVLDSDGSFFLYSKLTVDKSRWQQGNVFSCSVMHEALHNHYTQKSLSLSPGGGGGSGGGGSGGGGSGGGGSQVQLVESGGGLVQPGGSLKLSCATSGFNFNDYFMNWVRQASGKGLEWVGQIRNKNYNYATYYTESLEGRVTISRDDSKNTAYLQMNSLKTEDTAVYYCTSYYYDGFADYFDYWGQGTTVTVSSGGGGSGGGGSGGGGSGGGGSDIQMTQSPSSLSASVGDRVTITCKASQNIYIYLNWYQQKPGKAPKLLIYNTNNLQTGVPSRFSGSGSGTDFTLTISSLQPEDFATYYCLQHSSRRTFGGGTKVEIK
light: DIQMTQSPSSLSASVGDRVTITCKASQNVYKKLEWYQQKPGKVPKVLIYHTNILQTGVPSRFSGSGSGTDYTLTISSLQPEDVATYYCYQWNSGPTFGGGTKVEIKRTVAAPSVFIFPPSDEQLKSGTASVVCLLNNFYPREAKVQWKVDNALQSGNSQESVTEQDSKDSTYSLSSTLTLSKADYEKHKVYACEVTHQGLSSPVTKSFNRGEC
notes: Ly076 HC (IgG1 mutated Fc)-TM740 scFv VH-VL + Ly076 LC
binds: [1] | [2] | [3] | [4]

B3: Ly608 (bispecific antibody, human IgG1, kappa)
heavy: QVTLKESGPALVKPTQTLTLTCTFSGFSLSTSGTCVSWIRQPPGKALEWLATICWEDSKGYNPSLKSRLTISKDTSKNQAVLTMTNMDPVDTATYYCARREDSGYFWFPYWGQGTLVTVSSASTKGPSVFPLAPSSKSTSGGTAALGCLVKDYFPEPVTVSWNSGALTSGVHTFPAVLQSSGLYSLSSVVTVPSSSLGTQTYICNVNHKPSNTKVDKKVEPKSCDKTHTCPPCPAPELLGPSVFLFPPKPKDTLMISRTPEVTCVVVDVSHEDPEVKFNWYVDGVEVHNAKTKPREEQYNSTYRVVSVLTVLHQDWLNGKEYKCKVSNKALPAPIEKTISKAKGQPREPQVYTLPPSREEMTKNQVSLTCLVKGFYPSDIAVEWESNGQPENNYKTTPPVLDSDGSFFLYSKLTVDKSRWQQGNVFSCSVMHEALHNHYTQKSLSLSPGGGGGSGGGGSGGGGSGGGGSDIQMTQSPSSLSASVGDRVTITCLASEDISNDLAWYQQKPGKAPKLLIYFVDRLLDGVPSRFSGSGSGTDFTLTISSLQPEDFATYYCQQSYKYPPTFGQGTKLEIKGGGGSGGGGSGGGGSGGGGSEVQLVESGGGLVQPGGSLRLSCAASGFTFTNYGLHWVRQAPGKGLEWVSSISPSGGVTYYRDSVKGRFTISRDNSKNTLYLQMNSLRAEDTAVYYCAKPFLGWGGANWIAHWGQGTLVTVSS
light: NIQMTQSPSSLSASVGDRVTITCKAGQNVNNYLAWYQQKPGKAPKVLIFNANSLQTGVPSRFSGSGSGTDFTLTISSLQPEDFATYYCQQYNSWPTFGGGTKVEIKRTVAAPSVFIFPPSDEQLKSGTASVVCLLNNFYPREAKVQWKVDNALQSGNSQESVTEQDSKDSTYSLSSTLTLSKADYEKHKVYACEVTHQGLSSPVTKSFNRGEC
notes: Ly516 HC (IgG1 mutated Fc)-TM559 scFv VL-VH + Ly516 LC
binds: [5] | [3] | [6] | [7]

B4: Ly609 (bispecific antibody, human IgG1, kappa)
heavy: QVTLKESGPALVKPTQTLTLTCTFSGFSLSTSGTCVSWIRQPPGKALEWLATICWEDSKGYNPSLKSRLTISKDTSKNQAVLTMTNMDPVDTATYYCARREDSGYFWFPYWGQGTLVTVSSASTKGPSVFPLAPSSKSTSGGTAALGCLVKDYFPEPVTVSWNSGALTSGVHTFPAVLQSSGLYSLSSVVTVPSSSLGTQTYICNVNHKPSNTKVDKKVEPKSCDKTHTCPPCPAPELLGPSVFLFPPKPKDTLMISRTPEVTCVVVDVSHEDPEVKFNWYVDGVEVHNAKTKPREEQYNSTYRVVSVLTVLHQDWLNGKEYKCKVSNKALPAPIEKTISKAKGQPREPQVYTLPPSREEMTKNQVSLTCLVKGFYPSDIAVEWESNGQPENNYKTTPPVLDSDGSFFLYSKLTVDKSRWQQGNVFSCSVMHEALHNHYTQKSLSLSPGGGGGSGGGGSGGGGSGGGGSEVQLVESGGGLVQPGGSLRLSCAASGFTFTNYGLHWVRQAPGKGLEWVSSISPSGGVTYYRDSVKGRFTISRDNSKNTLYLQMNSLRAEDTAVYYCAKPFLGWGGANWIAHWGQGTLVTVSSGGGGSGGGGSGGGGSGGGGSDIQMTQSPSSLSASVGDRVTITCLASEDISNDLAWYQQKPGKAPKLLIYFVDRLLDGVPSRFSGSGSGTDFTLTISSLQPEDFATYYCQQSYKYPPTFGQGTKLEIK
light: NIQMTQSPSSLSASVGDRVTITCKAGQNVNNYLAWYQQKPGKAPKVLIFNANSLQTGVPSRFSGSGSGTDFTLTISSLQPEDFATYYCQQYNSWPTFGGGTKVEIKRTVAAPSVFIFPPSDEQLKSGTASVVCLLNNFYPREAKVQWKVDNALQSGNSQESVTEQDSKDSTYSLSSTLTLSKADYEKHKVYACEVTHQGLSSPVTKSFNRGEC
notes: Ly516 HC (IgG1 mutated Fc)-TM559 scFv VH-VL + Ly516 LC
binds: [5] | [3] | [6] | [7]
